As a reminder, the IC50 is the concentration needed to halve the response being measured. Higher therefore signals weaker potency in that assay. For orientation: Ki means the equilibrium dissociation constant of an inhibitor or competing ligand from its target. A high value points to lower affinity.

Here are results for 32 molecules from patent publication US20080020978A1 (Amgen, published 2008).

The chains are these.
B1: SEQ ID NO 850 (peptide)
peptide: Ac-WVTHRLAGLAS[Cit]SGGVVRKNFVPTDVGPFAF-NH2
SMILES: CC(=O)N[C@@H](Cc1c[nH]c2ccccc12)C(=O)N[C@H](C(=O)N[C@H](C(=O)N[C@@H](Cc1c[nH]cn1)C(=O)N[C@@H](CCCNC(=N)N)C(=O)N[C@@H](CC(C)C)C(=O)N[C@@H](C)C(=O)NCC(=O)N[C@@H](CC(C)C)C(=O)N[C@@H](C)C(=O)N[C@@H](CO)C(=O)N[C@@H](CCCNC(N)=O)C(=O)N[C@@H](CO)C(=O)NCC(=O)NCC(=O)N[C@H](C(=O)N[C@H](C(=O)N[C@@H](CCCNC(=N)N)C(=O)N[C@@H](CCCCN)C(=O)N[C@@H](CC(N)=O)C(=O)N[C@@H](Cc1ccccc1)C(=O)N[C@H](C(=O)N1CCC[C@H]1C(=O)N[C@H](C(=O)N[C@@H](CC(=O)O)C(=O)N[C@H](C(=O)NCC(=O)N1CCC[C@H]1C(=O)N[C@@H](Cc1ccccc1)C(=O)N[C@@H](C)C(=O)N[C@@H](Cc1ccccc1)C(N)=O)C(C)C)[C@@H](C)O)C(C)C)C(C)C)C(C)C)[C@@H](C)O)C(C)C
B2: SEQ ID NO 701 (peptide)
peptide: [1Nal]VTHRLAGLLSRSGGVVKNNFVPTDVGPFAF-NH2
modifications: N-terminus assumed
SMILES: CC(C)C[C@H](NC(=O)CNC(=O)[C@H](C)NC(=O)[C@H](CC(C)C)NC(=O)[C@H](CCCNC(=N)N)NC(=O)[C@H](Cc1c[nH]cn1)NC(=O)[C@@H](NC(=O)[C@@H](NC(=O)[C@@H](N)Cc1cccc2ccccc12)C(C)C)[C@@H](C)O)C(=O)N[C@@H](CC(C)C)C(=O)N[C@@H](CO)C(=O)N[C@@H](CCCNC(=N)N)C(=O)N[C@@H](CO)C(=O)NCC(=O)NCC(=O)N[C@H](C(=O)N[C@H](C(=O)N[C@@H](CCCCN)C(=O)N[C@@H](CC(N)=O)C(=O)N[C@@H](CC(N)=O)C(=O)N[C@@H](Cc1ccccc1)C(=O)N[C@H](C(=O)N1CCC[C@H]1C(=O)N[C@H](C(=O)N[C@@H](CC(=O)O)C(=O)N[C@H](C(=O)NCC(=O)N1CCC[C@H]1C(=O)N[C@@H](Cc1ccccc1)C(=O)N[C@@H](C)C(=O)N[C@@H](Cc1ccccc1)C(N)=O)C(C)C)[C@@H](C)O)C(C)C)C(C)C)C(C)C
B3: SEQ ID NO 700 (peptide)
peptide: Bn-VTHRLAGLLSRSGGVVKNNFVPTDVGPFAF-NH2
SMILES: CC(C)C[C@H](NC(=O)CNC(=O)[C@H](C)NC(=O)[C@H](CC(C)C)NC(=O)[C@H](CCCNC(=N)N)NC(=O)[C@H](Cc1c[nH]cn1)NC(=O)[C@@H](NC(=O)[C@@H](NCc1ccccc1)C(C)C)[C@@H](C)O)C(=O)N[C@@H](CC(C)C)C(=O)N[C@@H](CO)C(=O)N[C@@H](CCCNC(=N)N)C(=O)N[C@@H](CO)C(=O)NCC(=O)NCC(=O)N[C@H](C(=O)N[C@H](C(=O)N[C@@H](CCCCN)C(=O)N[C@@H](CC(N)=O)C(=O)N[C@@H](CC(N)=O)C(=O)N[C@@H](Cc1ccccc1)C(=O)N[C@H](C(=O)N1CCC[C@H]1C(=O)N[C@H](C(=O)N[C@@H](CC(=O)O)C(=O)N[C@H](C(=O)NCC(=O)N1CCC[C@H]1C(=O)N[C@@H](Cc1ccccc1)C(=O)N[C@@H](C)C(=O)N[C@@H](Cc1ccccc1)C(N)=O)C(C)C)[C@@H](C)O)C(C)C)C(C)C)C(C)C
B4: SEQ ID NO 231 (peptide)
peptide: Ac-WVTHRLAGLLSRSGGVVKCNFVPTDVGPFAF-NH2
modifications: not fully specified (residue 19); printed as Ac-WVTHRLAGLLSRSGGVVKC^(20 kDa PEG)NFVPTDVGPFAF-amide
B5: SEQ ID NO 681 (peptide)
peptide: Ac-WVTHRLAGLLSRSGGVVRCNFVPTDVGPFAF-NH2
modifications: not fully specified (residue 19); printed as Ac-WVTHRLAGLLSRSGGVVRC^(20 kDa PEG)NFVPTDVGPFAF-amide
B6: SEQ ID NO 683 (peptide)
peptide: Ac-WVTHRLAGLLSRSGGVVCNNFVPTDVGPFAF-NH2
modifications: not fully specified (residue 18); printed as Ac-WVTHRLAGLLSRSGGVVC^(20 kDa PEG)NNFVPTDVGPFAF-amide

Square brackets hold non-standard residues; d marks the D form. Ends that are not written are not given here. * marks the point of attachment. 20 kDa MeO‑PEG = methoxy-polyethylene glycol of 20 kDa conjugated to the residue side chain; Bn2 = Nα,Nα-dibenzyl on N-terminal residue; 1Nal = N[C@@H](Cc1cccc2ccccc12)C(=O)O; Cit = NC(=O)NCCC[C@H](N)C(=O)O; Bn = c1ccc(C*)cc1 A value given as a limit tells only on which side of the number the result lay.

The target of one assay is T1, CGRP1 receptor (CRLR/RAMP1 complex) of human neuroblastoma SK-N-MC cells (human, UniProt Q16602 23-461; O60894 27-148). As to the kind of experiment: cell-based or functional assay.
T1 sequence (Q16602 23-461, chain 1 of 2): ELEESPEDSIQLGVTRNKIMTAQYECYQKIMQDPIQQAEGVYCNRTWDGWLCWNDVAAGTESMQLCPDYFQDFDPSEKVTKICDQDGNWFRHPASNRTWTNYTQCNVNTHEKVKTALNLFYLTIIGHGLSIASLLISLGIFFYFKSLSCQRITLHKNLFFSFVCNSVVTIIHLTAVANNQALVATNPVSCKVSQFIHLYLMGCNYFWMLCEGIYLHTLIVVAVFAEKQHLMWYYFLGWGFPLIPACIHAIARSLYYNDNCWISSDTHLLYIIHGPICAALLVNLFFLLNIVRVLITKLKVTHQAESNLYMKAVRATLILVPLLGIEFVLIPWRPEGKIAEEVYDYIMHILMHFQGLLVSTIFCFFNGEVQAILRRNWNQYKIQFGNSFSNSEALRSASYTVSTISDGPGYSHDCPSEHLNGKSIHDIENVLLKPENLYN
T1 sequence (O60894 27-148, chain 2 of 2): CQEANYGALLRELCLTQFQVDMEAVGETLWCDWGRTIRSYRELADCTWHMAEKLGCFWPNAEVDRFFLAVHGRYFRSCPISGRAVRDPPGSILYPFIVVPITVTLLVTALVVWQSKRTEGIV
With Ac-WVTH[Cit]LAGLAS[Cit]SGGVVRKNFVPTDVGPFAF-NH2 [SEQ ID NO 852], half-maximal inhibition (IC50) required 23.4 nM. The same measure, in the same setting: under B1 stands 1.85 nM.

Consider Ac-WVTHRLAGLAS[Cit]SGGVVRK(MeO‑PEG 20 kDa)NFVPTDVGPFAF-NH2 [SEQ ID NO 851], for which the concentration for half-maximal inhibition (IC50) worked out at 228 nM. Same read-out and setting: as for Ac-WVTHRLAGLLSRSGGVK(20 kDa MeO‑PEG)RNNFVPTDVGPFAF-NH2 [SEQ ID NO 824], the figure is 0.98 nM. Still for that read-out and setting: as for Ac-WVTHRLAGLLSRSGGVC(20 kDa MeO‑PEG)RNNFVPTDVGPFAF-NH2 [SEQ ID NO 821], the figure is 0.16 nM; as for Ac-WVTHRLAGLLSRPGGVVRKNFVPTDVGPFAF-NH2 [SEQ ID NO 854], 1.27 nM. On the same count and under the same terms, as for Ac-WVTHRLAGLLSRPGGVVRK(20 kDa MeO‑PEG)NFVPTDVGPFAF-NH2 [SEQ ID NO 855], the figure is 18 nM.

Regarding Ac-WVTHRLAGLLSRSGGVKRNNFVPTDVGPFAF-NH2 [SEQ ID NO 823], inhibition was half-maximal at 0.51 nM (IC50). On the same count and under the same terms, under Ac-WVTH[Cit]LAGLAS[Cit]SGGVVRK(20 kDa MeO‑PEG)NFVPTDVGPFAF-NH2 [SEQ ID NO 853] stands > 1000 nM.

A further assay has as its target T1, CGRP1 receptor (CRLR/RAMP1 complex) of …. Briefly: 125I-hαCGRP competition, SK-N-MC membranes. How it is done:
CGRP₁ binding experiments. […] The plates were incubated at room temperature for 2 hour with shaking at 60 rpm, then the contents of each well were filtered over 0.5% polyethyleneimine (PEI)-treated (at least one hour) GF/C 96-well filter plates. The GF/C filter plates were washed 6 times with ice-cold 50 mM Tris, pH 7.5 and dried in an oven at 55 C for 1 hour. The bottoms of the GF/C plates were then sealed, and 40 μl Microscint™ 20 was added to each well, then the tops of the GF/C plates were sealed with TopSeal™-A, a press-on adhesive sealing film, and the GF/C plates were counted with TopCount NXT (Packard). The data were analyzed by using ActivityBase (IDBS) or Prizm (GraphPad) software.
Turning to Bn2-VTHRLAGLLSRSGGVVKNNFVPTDVGPFAF-NH2 [SEQ ID NO 702], the Ki was 0.23 nM.

Turning to B2, the Ki was 0.14 nM. C(MeO‑PEG 5 kDa)GGGGGGGVTHRLAGLLSRSGGVVKNNFVPTNVGSKAF-NH2 [SEQ ID NO 690] yielded a Ki of 3070 nM. Still for that read-out and setting: under CGGGGGGGVTHRLAGLLSRSGGVVKNNFVPTDVGPFAF-NH2 (not fully specified (residue 1)) [SEQ ID NO 692] stands 20.8 nM.

Turning to VTHRLAGLLSRSGGVVKCNFVPTNVGSKAF (VTHRLAGLLSRSGGVVKC^(5 kDa MeO-PEG)NFVPTNVGSKAF-amide) [SEQ ID NO 693], the affinity, expressed as Ki, was 17.5 nM.

Molecule VTHRLAGLLSRSGGVVC(MeO‑PEG 5 kDa)NNFVPTNVGSKAF-NH2 [SEQ ID NO 691] showed an inhibition constant (Ki) of 157 nM. Still for that read-out and setting: under B3 stands 0.22 nM; under Ac-VTHRLAGLLSRSGGVVRK(20 kDa PEG)NFVPTDVGPFAF-NH2 [SEQ ID NO 230], 0.17 nM; under WVTHRLAGLLSRSGGVVKC(MeO‑PEG 5 kDa)NFVPTDVGPFAF-NH2 [SEQ ID NO 696], 0.21 nM. Still for that read-out and setting: under WVTHXLAGLLSXSGGVVXKNFVPTDVGXFAF (Ac-WVTH[Cit]LAGLLS[Cit]SGGVV[hArg]K(20 KPEGald)NFVPTDVG[Oic]FAF-NH2) [SEQ ID NO 172] stands 1.27 nM. Molecule WVTHXLAGLLSXSGGVVXKNFVPTDVGPXAF (Ac-WVTH[Cit]LAGLLS[Cit]SGGVV[hArg]KNFVPTDVGP[1-Nal]AF-NH2) [SEQ ID NO 674] yielded an inhibition constant (Ki) of 0.64 nM.

C(MeO‑PEG 5 kDa)GGGGGGGWVTHRLAGLLSRSGGVVKNNFVPTDVGPFAF-NH2 [SEQ ID NO 697]: the affinity, expressed as Ki, was 5.74 nM. Ac-VTHRLAGLLSRSGGVVRK(PEG 5 kDa)NFVPTDVGPFAF-NH2 [SEQ ID NO 229] yielded a Ki of 0.06 nM.

As to Ac-WVTHRLAGLLSRSGGVVKC(PEG 30 kDa)NFVPTDVGPFAF-NH2 [SEQ ID NO 232], the affinity corresponds to a Ki of 0.27 nM. Take B4: affinity was put at a Ki of 0.27 nM. Same read-out and setting: as for B5, the figure is 0.6 nM; as for Ac-WVTHRLAGLLSRSGGVVCNNFVPTDVGPFAF-NH2 [SEQ ID NO 682], 0.34 nM.

The molecule WVTHRLAGLLSRSGGVVKCNFVPTNVGSKAF (WVTHRLAGLLSRSGGVVKC^(5 kDa MeO-PEG)NFVPTNVGSKAF-amide) [SEQ ID NO 695] displayed a Ki of 5.44 nM. Molecule Ac-WVTHRLAGLLSRSGGVVKNNFVPTDVGPFAF-NH2 [SEQ ID NO 684] came in with a Ki of 0.08 nM. The same measure, in the same setting: under Ac-WVTHRLAGLLSRSGGVVRCNFVPTDVGPFAF-NH2 [SEQ ID NO 680] stands 0.58 nM; under B6, 1.58 nM; under VTHRLAGLLSRSGGVVKCNFVPTNVGSKAF (VTHRLAGLLSRSGGVVKC^(5 kDa MeO-PEG)NFVPTNVGSKAF-amide) [SEQ ID NO 694], 31.8 nM. WVTHRLAGLLSRSGGVVKCNFVPTDVGPFAF-NH2 [SEQ ID NO 689] displayed an inhibition constant (Ki) of 0.95 nM.
